Data as given in PMC6345753, “Curcumin inhibits the TGF-β1-dependent differentiation of lung fibroblasts via PPARγ-driven upregulation of cathepsins B and L”.

B1: CAT B-PPREmt (dsDNA)
DNA 1: TCTCCTGATGTAGGATACTCCTGCCTCG
DNA 2: CGAGGCAGGAGTATCCTACATCAGGAGA
B2: CAT L-PPRE (dsDNA)
DNA 1: TTATGGGGTAAAGGCAGAGGTAATTATT
DNA 2: AATAATTACCTCTGCCTTTACCCCATAA
B3: CAT L-PPREmt (dsDNA)
DNA 1: TTATGCGGTACCCGCTTCGGTAATTATT
DNA 2: AATAATTACCGAAGCGGGTACCGCATAA
B4: consensus PPRE (dsDNA)
DNA 1: CAAAACTAGGTCAAAGGTCA
DNA 2: TGACCTTTGACCTAGTTTTG
B5: CAT B-PPRE (dsDNA)
DNA 1: TCTCCTGACCTGTGATCCGCCCGCCTCG
DNA 2: CGAGGCGGGCGGATCACAGGTCAGGAGA

Tests used:
Details in all cases: protein: recombinant;recombinant; tags: ;; copies: 1;1; blunt
PPARγ;RXRα [1] = molecular target: T1, PPARγ;RXRα (human;human, UniProt P37231;P19793 1-505;1-462, |); assay: EMSA; labeled mutant probe; 4 fmol labeled DNA, 3.7 pmol PPARγ, 3.9 pmol RXRα in 20 µl; 20 ng poly(dI.dC), 2.5% glycerol, 0.05% NP-40, 5 mM MgCl2; on ice 20 min; 4% native gel, 1x TBE, 4 °C; pH and salt not given
PPARγ;RXRα [2] = molecular target: T1, PPARγ;RXRα; assay: EMSA; two shifted complexes; anti-PPARγ supershift; 4 fmol labeled DNA, 3.7 pmol PPARγ, 3.9 pmol RXRα in 20 µl; 20 ng poly(dI.dC), 2.5% glycerol, 0.05% NP-40, 5 mM MgCl2; on ice 20 min; 4% native gel, 1x TBE, 4 °C; pH and salt not given
PPARγ;RXRα [3] = molecular target: T1, PPARγ;RXRα; assay: EMSA; positive control; anti-PPARγ supershift; 4 fmol labeled DNA, 3.7 pmol PPARγ, 3.9 pmol RXRα in 20 µl; 20 ng poly(dI.dC), 2.5% glycerol, 0.05% NP-40, 5 mM MgCl2; on ice 20 min; 4% native gel, 1x TBE, 4 °C; pH and salt not given

| Binder | binding result (PPARγ;RXRα [1]) | binding result (PPARγ;RXRα [2]) | other results |
| --- | --- | --- | --- |
| B1 | no binding | – | – |
| B2 | – | binds | – |
| B3 | no binding | – | – |
| B4 | – | – | binding result (PPARγ;RXRα [3]): binds |
| B5 | – | binds | – |
